Consider two molecules from PMC10936178 (mBio, 2024).

In general, stoichiometry N refers to the number of molecules, sites or subunits per partner or assembly.

The target in data set [1] is PvS1FL (full-length Plasmodium vivax subtilisin-like protease 1, Sub1, autoprocessed with bound prodomain) (UniProt E6Y8B9). Description: analytical ultracentrifugation, sedimentation equilibrium (Beckman Coulter XL-I, absorbance at 280 nm). Conditions: 20°C, 150 mM NaCl, 10 mM CaCl2, pH 5: 50 mM NaCit (sodium citrate), pH 8: 50 mM Tris.
Data set [2] concerns the molecule itself. Description: AUC; sedimentation equilibrium, pH 5 (50 mM NaCit pH 5, 150 mM NaCl, 10 mM CaCl2), 20°C, 2, 5 and 10 µM protein, 9,000, 13,000 and 16,000 rpm, single-species model.

Regarding “PvS1FL (full-length Plasmodium vivax subtilisin-like protease 1, Sub1, autoprocessed with bound prodomain)”, the “apparent molecular weight (single-species fit); oligomeric state” value in data set [1] (pH 5) was 135.8 ± 2.8 kDa (stable homodimer; theoretical monomer 67.71 kDa); in data set [1] (pH 8), 67.9 ± 1.1 kDa (monomer; theoretical monomer 67.71 kDa).

B1: full-length Plasmodium vivax Sub1 (PvS1FL), recombinant, autocleaved at Asp202 (enzyme)
chain 1: GDILPNEGKKEKDDVHKIISELRFLQKVETILESSNMSVSDVEADANAYNPDRDAPKEELQKLQDQQETPSKQPNNLRNSPQKRAEKKESPGKNKKSLRLIVSENHATSPSFFEESLLQEDVVSFIQSKGKLSNLKNLKSMIIDLNSDMTDEELAEYISLLERKGALIESDKLVGAD
chain 2: DVSLASVKDAVRRGESSVNWGKLRSTMLEVPSGESPPSHAASSGSPFDDDDDLLSEAALHREEAHLAGSKTTKGYKFNDEYRNLQWGLDLARLDETQDLINANRVSVTKICVIDSGIDYNHPDLRNNIDVNVKELHGRKGVDDDSNGVVDDVYGANFVNNSGDPMDDNYHGTHVSGIISAVGNNGIGIVGVDGHSKLVICKALDQHKLGRLGDMFKCIDYCISRQAHMINGSFSFDEYSNIFNASVEHLRSLGILFFVSASNCAHDKLSKPDIAKCDLAVNHRYPPILSKTHNNVIAVANLKRDLDESYSLSVNSFYSNIYCQLAAPGTNIYSTTPMNNYRKLNGTSMASPHVAAIASIVRSINPNLTYLQIVEILRNAIVKLPSLTERVSWGGYVDILRAVNLAIDSKAAPYIKSHSWFRWKQGSRR
notes: Prodomain of P. vivax Sub1 up to the primary maturation site Asp202; Catalytic domain of P. vivax Sub1, from the residue after the primary maturation site Asp202 to the C-terminus
As to B1, the “stoichiometry N” value in data set [2] stood at 2.
